Measured values from patent US20240254203A1 (ACHELOIS BIOPHARMA, published 2024).

B1: 0304-4A10 (antibody, V domains shown)
VH: EVQLVESGGGLVQPGGSLRLSCAASGFTFSTYAMHWVRQAPGKGLEYVSGISSNGGSTYYANSVKGRFTISRDNSKNTLYIQMGSLRAEDMAVYYCARSSSRGFDYWGQGTLVTVSS
VL: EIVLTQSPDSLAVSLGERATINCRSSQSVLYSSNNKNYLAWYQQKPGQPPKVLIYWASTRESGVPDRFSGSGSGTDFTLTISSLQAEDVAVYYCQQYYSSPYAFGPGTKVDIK
B2: 2M-14E5 (antibody, V domains shown)
VH: EVQLVESGGGVVQPGRSLRLSCAASGFTFSTYSMHWVRQAPGKGLEWVAVISYDGSNKYYADSVKGRFTISRDNSKNTLYLQVNSLRAEDTAVYYCARSGGGSYRGPFDYWGQGTLVTVSS
VL: AIRMTQSPSFLSVSVGDRVTITCRASQGISSYLAWYQQKPGKAPKLLIYAASTLQSGVPSRFSGSGSGTEFTLTISSLQPEDFATYYCQQLNSYVTFGGGTKVEIK
B3: 9A1 (antibody, V domains shown)
VH: EVQLLESGGGVVQPGRSLRLSCVVSGFTFNNYGMHWVRQAPGKGLEWVAVISYEGSVKYYGDHVDGRFTISRDPFKNTLYLHMNNLRPDDTAVYYCAKVSAIFWLGQGLSPIDVWGQGTTVTVSS
VL: DIVMTQSPATLSASPGERVTLSCRASQNIRNNLAWYQQKPGQAPRLLIHGASTRAAGAPARFSGSGSDTQFTLTVSSLQSEDFAVYYCHQYSKWPVTFGGGTKVDIK
B4: 2M-10B11 (antibody, V domains shown)
VH: EVQLVESGGGLVQPGGSLRLSCAASGFTVSSNYMSWVRQAPGKGLEWVSVIYSGGSTYYADSVKGRFTISRDNSKNTLYLQMNSLRAEDTAVYYCARATWLRGVMDVWGQGTTVTVSS
VL: QSALTQPHSVSESPGKTVTISCTGSSGSIASNYVQWYQQRPGSAPTTVIYEDNQRPSGVPDRFSGSIDSSSNSASLTISGLKTEDEADYYCQSYDSSNHWVFGGGTKLTVL
B5: C021 (antibody, V domains shown)
VH: QVQLQESGPGLVKPSQTLSLTCTVSGGSISSGGYYWSWIRQHPGKGLEWIGYIYYSGSTYYNPSLKSRVTISVDTSKNQFSLKLSSVTAADTAVYYCARVWQYYDSSGSFDYWGQGTLVTVSS
VL: not shown
B6: C018 (antibody, V domains shown)
VH: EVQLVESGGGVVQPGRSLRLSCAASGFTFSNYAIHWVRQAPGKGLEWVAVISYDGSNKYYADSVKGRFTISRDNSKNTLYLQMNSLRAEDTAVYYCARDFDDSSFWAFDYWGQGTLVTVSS
VL: DIQLTQSPSSLSASVGDRVTITCRASQSIRSYLNWYQQKPGKAPKLLIYAASSLQSGVPSRFSGSGSGTDFTLTISSLQPDDFATYYCQQSYSTPPATFGQGTKLEIK

What was measured:
[1] = biological target: T1, SARS CoV-2 spike protein (antigen of the mAb binding affinity values) (SARS CoV-2, UniProt P0DTC2 14-1213); assay: assay not described; mAb; binding locale Spike S2
[2] = biological target: T1, SARS CoV-2 spike protein (antigen of …); assay: assay not described; mAb; binding locale Spike RBD

Binder	mAb Binding Affinity [1]	mAb Binding Affinity [2]
B1	3 ng/mL	–
B2	7 ng/mL	–
B3	5 ng/mL	–
B4	–	5 ng/mL
B5	–	1.25 ng/mL
B6	–	1.53 ng/mL
